Earlier results as cited in paper PMC4463550.

Legend:
[1] = molecular target: His471 (UniProt position 471, WLSVGHVDEFL); conditions: PAD4; state not stated
[2] = molecular target: Cys645 (UniProt position 645, HGEVHCGTNVR); experiment: chemical modification; conditions: PAD4, no substrate; calcium state not stated
[3] = molecular target: Cys647 (UniProt position 647, LGEVHCGTNVR); experiment: chemical modification; conditions: calcium state not stated
[4] = molecular target: PAD4 (Homo sapiens) (UniProt Q9UM07)

Sequence of PAD4 (Q9UM07 whole entry): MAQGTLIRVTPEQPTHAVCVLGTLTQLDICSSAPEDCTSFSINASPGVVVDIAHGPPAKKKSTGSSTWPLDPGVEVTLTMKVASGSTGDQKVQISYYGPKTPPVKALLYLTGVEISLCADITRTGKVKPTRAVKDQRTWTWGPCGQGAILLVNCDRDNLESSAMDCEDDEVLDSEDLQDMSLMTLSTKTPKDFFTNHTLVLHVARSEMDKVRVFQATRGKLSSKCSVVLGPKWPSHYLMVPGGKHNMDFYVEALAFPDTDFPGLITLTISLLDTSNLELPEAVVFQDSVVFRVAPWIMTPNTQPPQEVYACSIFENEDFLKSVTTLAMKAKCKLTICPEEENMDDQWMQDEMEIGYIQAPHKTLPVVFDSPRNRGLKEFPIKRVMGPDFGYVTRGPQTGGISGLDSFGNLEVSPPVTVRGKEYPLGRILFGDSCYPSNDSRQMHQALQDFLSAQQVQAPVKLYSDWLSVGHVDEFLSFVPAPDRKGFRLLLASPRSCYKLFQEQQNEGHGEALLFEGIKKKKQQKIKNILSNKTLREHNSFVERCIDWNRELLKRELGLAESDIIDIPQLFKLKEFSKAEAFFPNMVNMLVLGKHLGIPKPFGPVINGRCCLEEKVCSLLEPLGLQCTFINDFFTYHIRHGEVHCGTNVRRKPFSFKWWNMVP

## Protein arginine deiminase 4 (PAD4) (Homo sapiens)
[1]
  pKa: ∼7.3
[2]
  pKa: ≈ 8.3

## Protein arginine deiminase 2 (PAD2) (Homo sapiens)
[3]; PAD2, no substrate
  pKa: 8.2
[3]; PAD2 reacting with the substrate-mimicking, positively charged inactivator 2-chloroacetamidine
  pKa: 7.2

## PAD4 (from UniProt Q9UM07)
[4]
  Kd: 0.45 µM
